Test results: patent publication US20030099647A1 (published 2003)
Read-outs that look alike come from different tables or passages of the source.

T1: CHO expressed human interferon gamma (hIFNγ) (human, UniProt P01579 24-161, glycosylated (highly glycosylated form purified))
T1 chain: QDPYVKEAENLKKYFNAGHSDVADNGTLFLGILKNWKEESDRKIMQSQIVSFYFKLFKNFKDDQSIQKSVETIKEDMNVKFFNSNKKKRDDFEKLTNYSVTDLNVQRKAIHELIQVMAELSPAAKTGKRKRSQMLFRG


Experiments:
[1] = biological target: T1, CHO expressed human interferon gamma …; assay: BIAcore
[2] = biological target: T1, CHO expressed human interferon gamma …; assay: BIAcore

Row | Binder | Kd [1] [nM] | Kd [2] [nM]
1 | Fab phage clone "IFN-A" (Fab, V domains shown) VH: EVQLQQWGAGLLKPSETLSLTCAVYGGSFSGYYWSWIRQPPGKGLEWIGEINHSGSTNYNPSLKSRVTISVDTSKNQFSLKLSSVTAADTAVYYCARGWPTYVWGSYRPKGYFDYWGQGTLVTVSS VL: EIVLTQSPLSLPVTPGEPASISCRSSQSLLHTNEYNYLDWYLQKPGQSPQLLIYLGSNRAPGVPDRFSGSGSGTDFTLRISRVEADDVGVYYCMQALQTPRTFGQGTKLEIKR | 420 | –
2 | IFN-A IgG (antibody, V domains shown) VH: EVQLQQWGAGLLKPSETLSLTCAVYGGSFSGYYWSWIRQPPGKGLEWIGEINHSGSTNYNPSLKSRVTISVDTSKNQFSLKLSSVTAADTAVYYCARGWPTYVWGSYRPKGYFDYWGQGTLVTVSS VL: EIVLTQSPLSLPVTPGEPASISCRSSQSLLHTNEYNYLDWYLQKPGQSPQLLIYLGSNRAPGVPDRFSGSGSGTDFTLRISRVEADDVGVYYCMQALQTPRTFGQGTKLEIKR | 18 | 18
3 | 57E IgG (antibody, V domains shown) VH: QVQLQESGPGLVKPSETLSLTCAVSGGSISSGGYSWSWIRQPPGKGLEWIGYIYHSGSTYYNPSLKSRVTISVDRSKNQFSLKLSSVTAADTAVYYCARGDWGYFDYWGQGTLVTVSS VL: NFMLTQPHSVSESPGKTVTISCTGSSGSIANNYVHWYQQRPGSAPTTVIFEDDQRPSGVPDRFSGSVDSSSNSASLSISGLKTEDEADYYCQSYDNSNSFVVFGGGTKLTVLG | – | 200
4 | GP-A IgG (antibody, V domains shown) VH: QVQLVETGGGVVQPGRSLRLSCAASGFTFSSYAMHWVRQAPGKGLEWVAVISYDGSNKYYADSVKGRFTISRDNSKNTLYLQMNSLRAEDTAVYYCASDLVLTMTSRRAAFDIWGQGTMVTVSS VL: SYELTQPPSVSVSPGQTARITCSGDVLARKYARWFQQKPGQAPVLVIYKDRERPSGIPERFSGSTSGTTVTLTISGAQVEDEADYYCYSAADNRGVFGGGTKLTVLR | 8 | 8
5 | Fab phage clone "GP-A" (Fab, V domains shown) VH: QVQLVETGGGVVQPGRSLRLSCAASGFTFSSYAMHWVRQAPGKGLEWVAVISYDGSNKYYADSVKGRFTISRDNSKNTLYLQMNSLRAEDTAVYYCASDLVLTMTSRRAAFDIWGQGTMVTVSS VL: SYELTQPPSVSVSPGQTARITCSGDVLARKYARWFQQKPGQAPVLVIYKDRERPSGIPERFSGSTSGTTVTLTISGAQVEDEADYYCYSAADNRGVFGGGTKLTVLR | 150 | –
6 | BS-B Fab (soluble, purified) (Fab, V domains shown) VH: not shown VL: NFMLTQPHSVSESPGKTVTISCTRSSGSIASYYVQWYQQRPGSSPTTVIYEDDQRPSGVPDRFSGSIDSASNSASLTISGLQTEDEADYYCQSYDRNSLVFGGGTKLTVLG | 83.5 | –
7 | BS-B IgG (antibody, V domains shown) VH: not shown VL: NFMLTQPHSVSESPGKTVTISCTRSSGSIASYYVQWYQQRPGSSPTTVIYEDDQRPSGVPDRFSGSIDSASNSASLTISGLQTEDEADYYCQSYDRNSLVFGGGTKLTVLG | 0.5 | 0.5
8 | BS-A Fab (soluble, purified) (Fab, V domains shown) VH: QVQLQQWGAGLLKPSETLSLTCAVYGGSFSGYYWSWIRQPPGKGLEWIGEINHSGSTNYNPSLKSRVTISVDTSKNQFSLKLSSVTAADTAVYYCARGRARNWRSRFDYWGQGTLVTVSS VL: NFMLTQPHSVSESPGKTVTISCTGSSGSIASHYVQWYQQRPGSAPTNVIYEDKERPSGVPDRFSGSIDSSTNSASLTISGLKTEDEADYYCQSYDSSNQWVFGGGTKLTVLG | 84.3 | –
9 | BS-A IgG (antibody, V domains shown) VH: QVQLQQWGAGLLKPSETLSLTCAVYGGSFSGYYWSWIRQPPGKGLEWIGEINHSGSTNYNPSLKSRVTISVDTSKNQFSLKLSSVTAADTAVYYCARGRARNWRSRFDYWGQGTLVTVSS VL: NFMLTQPHSVSESPGKTVTISCTGSSGSIASHYVQWYQQRPGSAPTNVIYEDKERPSGVPDRFSGSIDSSTNSASLTISGLKTEDEADYYCQSYDSSNQWVFGGGTKLTVLG | 6 | 6
